For this test, the target named is Fc gamma receptor (Fc(γ)R) on dendritic cells. The test can be described thus: cell-based or functional assay.

As for monoclonal antibody 3G4 (ATCC PTA 4545), the DC uptake of apoptotic tumor cells came out at 300%.

These data come from patent publication US20040219155A1.
